The source of these data is patent US20090227489A1, “STAT3 Agonists and Antagonists and Therapeutic Uses Thereof” (Johns Hopkins University, priority 2000, published 2009).

Assay [1] has as its system B16 cells. Kind of assay: RNase protection assays of cytokine and chemokine RNA in B16 cells. Particulars: 36 h after transfection. Format: cell-based, murine. The procedure: FIG. 7A-B. Stat3β expression in B16 cells upregulates the expression of pro-inflammatory chemokines and cytokines, which can stimulate peritoneal macrophages to produce NO. Elevated expression of pro-inflammatory cytokines and chemokines in B16 cells as a result of Stat3β expression (A. TNF-α, IL-6, IFN-β; B. IP-10). Total RNAs were prepared form mock-transfected, GFP-transfected, Stat3β-transfected and UV-irradiated B16 cells. Data shown have been confirmed with at least one more experiment, in which RNAs were prepared from independent transfectants and UV-irradiated B16 tumor cells.
RNase protection assays. 10 μg of total RNA isolated from either pIRES-EGFP- or pIRES-Stat3 β-transfected B16 cells (36 h after transfection) was hybridized to multi-template probes from PharMingen (mCK-5, Top Panel; mCK-3, Lower Panel) that were labeled with ^32P-dUTP using in vitro transcription. The RNA encoded by GAPDH housekeeping gene was used to normalize the amounts of RNAs loaded in each lane. Similar protocols were used to determine RNA expression profiles of macrophages treated with supernatants derived from B16 cells transfected with either Stat3β or GFP vector. […]
RNA expression profiles of a number of cytokines and chemokines in pIRES-Stat3β transfected B16 cells were determined. […]

Assay [2] concerns B16 cells. Description: Apoptosis assay, Annexin V-PE staining and FACS. Format: cell-based, murine. Particulars: 48 hours post transfection; empty vector 25%. As to the method: Apoptosis assay. B16 cells transfected with pIRES-EGFP or pIRES-Stat3β were washed with CellScrub™ buffer (Gene Therapy Systems, San Diego, Calif.) 24 h after transfection. Apoptosis of transiently-transfected B16 cells was analyzed after staining with Annexin V-PE by two-color flow cytometry. Apoptosis of non-transfected tumor cells in the upper chambers of Transwell units was analyzed after staining with Annexin V-PE and VIA-PROBE™ 7-AAD (Pharmingen, San Diego, Calif.) by two-color flow cytometry.
This G0/G1 phase arrest was observed as early as 24 hourspost transfection. At 48 hours post transfection with Stat3β vector, Annexin V-PE staining followed by FACS analysis to detect apoptotic activity was performed with transfected B16 cells. A high level of apoptosis in Stat3β transfected cells (75%) relative to empty vector transfected cells (25%) was observed, as shown in FIG. 2C. Increased levels of apoptosis as a result of Stat3β transfection was confirmed by confocal laser scanning microscope analysis using rhodamine-labelled TUNEL assay.

Assay [3] concerns the target T1, Stat3 (Mus musculus, UniProt P42227).
T1 construct: endogenous in cells; host or cells: B16 murine melanoma cells (nuclear extracts)
Kind of assay: EMSA of Stat3 DNA-binding activity in nuclear extracts of transfected B16 cells. It counts as cell-based, murine. The conditions noted are these: B16 cells transfected with Stat3β, hSIE probe. The procedure: FIG. 1. Inhibition of endogenous Stat3 (SEQ. ID. NO: 1; SEQ. ID. NO:2) DNA-binding activity in B16 cells by overexpression of Stat3β (SEQ. ID. NO:3; SEQ. ID. NO:4). EMSA was performed with nuclear extracts prepared from B16 cells transfected with no DNA (lane 1), empty vector (lane 2) or Stat3β expression vector (lane 3). Extracts from NIH3T3 fibroblasts stimulated with EGF were used as a positive control for Stat1 and Stat3 (lane 4). Supershifts were performed using antibodies recognizing either Stat3 (α-ST3) or Stat3:3 (α-ST3β) with extracts derived from B16 cells transfected with no DNA (lanes 5-7), the empty vector (lanes 8-10), or Stat3β vector (lanes 11-13). ST3:3, and ST1:3, ST1:1 indicate migration of complexes containing Stat3 or Stat3β homodimers, Stat1/Stat3 heterodimers and Stat1/Stat1 homodimers, respectively. The asterisk indicates the position of supershifted complexes.
Nuclear extracts and EMSA. Nuclear extract preparation and EMSA analysis of STAT DNA-binding activity were performed as previously described Catlett-Falcone et al., 1999, supra.
EGF-induced Stat3 binding activity in NIH3T3 (lane 4) was used as a positive control. By supershift analysis with antibody that recognizes Stat3 but not Stat3β or antibody that recognizes Stat3β but not Stat3, it was shown that there were Stat3-Stat3 homodimers in mock-transfected B16 cells and empty vector-transfected B16 cells.
(In general: In EMSA bound probe runs differently from free probe, usually more slowly.)

Assay [4] has as its system VEGF. Kind of assay: VEGF expression and Stat3 activity in v-Src-transformed NIH3T3 fibroblasts. Format: cell-based. The source says: FIG. 10A-B. Transfection of NIH3T3-Src cells with either: A. Stat3β expression vector; or B. Stat3 anti-sense oligos, results in reduced levels of VEGF protein as shown by Western blot. Src tyrosine kinase-mediated VEGF upregulation requires Stat3. Src tyrosine activity is known to upregulate VEGF expression. In Src-transformed NIH3T3 cells, VEGF expression is high.
Src tyrosine kinase activity upregulates VEGF expression. […] NIH3T3 fibroblasts transformed by v-Src were transiently transfected with a dominant-negative variant of Stat3, Stat3β. The transfection efficiency was approximately 40% based on the number of cells that were fluorescent due to the presence of GFP. […] Forty-eight hours later, VEGF expression in v-Src-NIH3T3 fibroblasts with or without Stat3β expression was compared at both RNA and protein levels. […] Anti-sense oligonucleotides against Stat3 as well as control oligonucleotides were also transfected into v-Src-NIH3T3 cells.

The test system of assay [5] is peritoneal macrophages and lymphocytes. Description: Mice injected with transfected B16 cells: macrophage NO production and lymphocyte IFN-γ ELISPOT. Format: in vivo. Particulars: transfected B16 cells injected into mice. As to the method: FIG. 9A-B. Expression of Stat3β in tumor cells leads to activation of macrophages and T lymphocytes in vivo. Mice were injected with B16 cells (2×10^6/mouse) transfected with either GFP or Stat3β expression vectors. Five days later, peritoneal macrophages and lymphocytes were tested for NO production and IFN-γ production, respectively. A. NO production by peritoneal macrophages. B. IFN-γ ELISPOT of lymphocytes.
In addition to direct tumoricidal effect shown herein with production of NO by macrophages, innate immunity critically impacts the development of adaptive immune responses. […] Furthermore, a four-fold increase in IFN-γ production by lymphocytes derived from mice injected with Stat3β-transfected B16 cells was also detected (FIG. 9B).

T1 sequence (P42227 whole entry): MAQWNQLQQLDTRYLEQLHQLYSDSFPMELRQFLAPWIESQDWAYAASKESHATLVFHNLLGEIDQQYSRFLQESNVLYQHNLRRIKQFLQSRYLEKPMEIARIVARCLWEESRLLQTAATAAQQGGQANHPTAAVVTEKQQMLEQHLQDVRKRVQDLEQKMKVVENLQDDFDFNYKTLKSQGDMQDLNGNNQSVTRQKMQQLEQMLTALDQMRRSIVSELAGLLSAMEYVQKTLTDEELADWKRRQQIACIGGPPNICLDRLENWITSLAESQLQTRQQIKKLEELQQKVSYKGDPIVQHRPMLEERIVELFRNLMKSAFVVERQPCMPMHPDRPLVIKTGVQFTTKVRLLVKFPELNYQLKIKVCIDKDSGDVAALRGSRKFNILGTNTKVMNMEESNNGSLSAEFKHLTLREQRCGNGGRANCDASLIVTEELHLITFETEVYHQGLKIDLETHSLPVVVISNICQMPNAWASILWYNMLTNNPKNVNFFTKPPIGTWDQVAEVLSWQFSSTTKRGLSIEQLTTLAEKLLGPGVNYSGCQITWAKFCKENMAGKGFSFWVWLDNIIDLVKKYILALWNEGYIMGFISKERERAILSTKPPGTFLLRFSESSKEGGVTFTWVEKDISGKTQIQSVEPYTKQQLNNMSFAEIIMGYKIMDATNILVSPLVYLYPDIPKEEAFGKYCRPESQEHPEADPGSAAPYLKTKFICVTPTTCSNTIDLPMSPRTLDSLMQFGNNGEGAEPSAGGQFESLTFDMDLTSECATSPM

B1: Stat3β: dominant-negative Stat3 variant, truncated form lacking the transactivation domain; delivered by the pIRES-Stat3β expression vector (protein)
chain: AQWNQLQQLDTRYLEQLHQLYSDSFPMELRQFLAPWIESQDWAYAASKESHATLVFHNLLGEIDQQYSRFLQESNVLYQHNLRRIKQFLQSRYLEKPMEIARIVARCLWEESRLLQTAATAAQQGGQANHPTAAVVTEKQQMLEQHLQDVRKRVQDLEQKMKVVENLQDDFDFNYKTLKSQGDMQDLNGNNQSVTRQKMQQLEQMLTALDQMRRSIVSELAGLLSAMEYVQKTLTDEELADWKRRQQIACIGGPPNICLDRLENWITSLAESQLQTRQQIKKLEELQQKVSYKGDPIVQHRPMLEERIVELFRNLMKSAFVVERQPCMPMHPDRPLVIKTGVQFTTKVRLLVKFPELNYQLKIKVCIDKDSGDVAALRGSRKFNILGTNTKVMNMEESNNGSLSAEFKHLTLREQRCGNGGRANCDASLIVTEELHLITFETEVYHQGLKIDLETHSLPVVVISNICQMPNAWASILWYNMLTNNPKNVNFFTKPPIGTWDQVAEVLSWQFSSTTKRGLSIEQLTTLAEKLLGPGVNYSGCQITWAKFCKENMAGKGFSFWVWLDNIIDLVKKYILALWNEGYIMGFISKERERAILSTKPPGTFLLRFSESSKEGGVTFTWVEKDISGKTQIQSVEPYTKQQLNNMSFAEIIMGYKIMDATNILVSPLVYLYPDIPKEEAFGKYCRPESQEHPEADPGAAPYLKTKFICVTFIDAVWK
On to B1, for which, in assay [1], the “expression levels of IL-4 and IL-10 mRNAs” value is “but not IL-4 and IL-10, were elevated”. Further, in assay [1] (vs mock, control vector and UV-irradiated B16 cells), the “expression levels of IFN-β, TNF-α, IL-6 and IP-10 mRNAs” value is given as “elevated”. Also, the level of apoptosis in assay [2] is recorded as 75%. For the same molecule, in assay [3], the “Stat3 DNA-binding complexes (supershift analysis)” value is “mostly Stat3β-Stat3β homodimer formation”. In assay [4] (v-Src NIH3T3), the “Stat3 DNA binding activity (EMSA)” value was “loss of Stat3 DNA binding activity”. For the same molecule, the VEGF expression result in assay [4] (v-Src NIH3T3, forty-eight hours) was “inhibits VEGF”. In assay [5] (ELISPOT), the “increase in IFN-γ production by lymphocytes” value is given as “four-fold”. The “NO production by peritoneal macrophages” value in assay [5] (five days later) was “clear induction of NO production”.
